Results on 14 molecules are retold here after patent US20210253725A1 (BIONTECH, published 2021).

Assay [1] has as its target T1, CD27 expressed on the cell surface (HT1080_CD27 cells) (human, UniProt P26842 20-260).
T1 sequence (looked up): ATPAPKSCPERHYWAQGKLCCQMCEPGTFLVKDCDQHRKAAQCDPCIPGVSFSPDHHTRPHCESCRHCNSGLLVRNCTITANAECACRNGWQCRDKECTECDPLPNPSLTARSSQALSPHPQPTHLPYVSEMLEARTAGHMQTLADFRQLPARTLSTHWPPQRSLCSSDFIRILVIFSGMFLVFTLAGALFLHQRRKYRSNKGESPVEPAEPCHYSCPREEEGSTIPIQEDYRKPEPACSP
Briefly: cell-based or functional assay.

Assay [2] has as its target T2, CD27 protein (His-tagged, Sino Biological Inc. 10039-H08B1) (human, UniProt P26842 20-192).
T2 construct: bought; coated onto ELISA plates; also called human CD27; recombinant protein; not shown: His tag
T2 sequence (looked up): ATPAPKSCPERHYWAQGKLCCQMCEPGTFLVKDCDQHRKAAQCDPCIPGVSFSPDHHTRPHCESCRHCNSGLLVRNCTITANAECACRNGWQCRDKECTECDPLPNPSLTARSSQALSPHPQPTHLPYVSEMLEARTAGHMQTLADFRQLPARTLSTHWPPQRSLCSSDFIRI
Briefly: ELISA on coated His-tagged CD27.

In assay [3] the target is T1, CD27 expressed on the cell surface …. The experiment in a line: cellular binding assay, HT1080_CD27 cells.
Note: test concentration or dose not given here.

B1: P018.S.10.A.H01 (antibody, V domains shown)
VH: QEQLEESGGDLVKPGASLTLTCTASGFSFSSDYDMCWVSQAPGKGLEWIACIIGGSSDSTWYASWAKGRFTISKTSSTTVTLQVTGLTAADTATYFCARNVGFSYYDLWGPGTLVTVSS
VL: AQVLTQTPSPVSAAVGGTVTINCQASQSLYNNKNLAWYQQKPGQPPKLLIYYASTLASGVSSRFKGSGSGTQFTLTISGVQSDDAATYYCQGEFSCSSGDCFAFGGGTEVVVK
notes: V regions on human Ig constant parts; also called AB27_184
On to B1, for which, in assay [1], the “IL-8, cross-linked by F(ab')2 fragment [abs. corr.]” value (from here on “IL-8, cross-linked”) stood at 2.29 abs. corr and the “IL-8 [abs. corr.]” value was determined as 0.412 abs. corr. Moreover, the “ELISA [abs. corr.]” value in assay [2] amounted to 3.42 abs. corr. Besides, in assay [3], the “Cellular binding assay [RFU]” value is 443 RFU.

B2: P018.S.08.A.D01 (antibody, V domains shown)
VH: QSVEESGGRLVMPGTPLTLTCTVSGFSLSTYVMGWVRQAPGKGLECIGVIYGGGTIWYASWAKGRFTISKTSTTMDLQITSPTTEDTATYFCARDGSSSGDPGFNLWGQGTLVTVSS
VL: DIVMTQTPASVSAAVGGTVTINCQASQSISNWVAWYQQKPGQPPKRLIYKASTLASGVPSRFKGSGSGTEFTLTISDLESADAATYYCQSTGSTAYGRAFGGGTEVVVR
notes: V regions on human Ig constant parts; also called AB27_137
With B2, in assay [1], the “IL-8, cross-linked” value was determined as 1.12 abs. corr and the “IL-8 [abs. corr.]” value is -0.001 abs. corr. For the same molecule, in assay [2], the “ELISA [abs. corr.]” value is 3.42 abs. corr. The “Cellular binding assay [RFU]” value in assay [3] came out at 394 RFU.

B3: P018.S.01.A.F02 (antibody, V domains shown)
VH: QQQLVESGGGLVRPGASLTLTCKASGFSFSSGYYVCWVRQAPGKGLEWIACIFAGSGGGAGYATWAKGRFTISKTSSTTVTLQMTSLTAADTATYFCARPLSGYAYGMDLWGPGTLVTVSL
VL: DVVMTQTPASVSEPVEGTVTIKCQASQTISNYLAWYQQKPGQPPKLLIYGASTLESGVSSRFKGSGSGTQFTLTIYDLESADAATYYCQCTYDGSSDVGGAFGGGTEVVVK
notes: V regions on human Ig constant parts; also called AB27_19
In the case of B3, in assay [1], the “IL-8, cross-linked” value is 2.05 abs. corr and the “IL-8 [abs. corr.]” value came to 0.495 abs. corr. Besides, the “ELISA [abs. corr.]” value in assay [2] was 3.42 abs. corr. Besides, in assay [3], the “Cellular binding assay [RFU]” value stood at 326 RFU.

B4: P018.S.03.A.G02 (antibody, V domains shown)
VH: QSLEESGGDLVKPGASLTLTCTASGFSFSSGYDMCWVRQAPGKGLEWIACIYAGSNNNTYYASWAKGRFTISKTSSTTVTLQVASLTAADTATYFCARAAGGYADYAYVMGDYFNFWGPGTLVTVSS
VL: AYDMTQTPASVEVAVGGTVTIKCQASEDIYSILAWYQQKPGQRPKGLIYSASTLDSGVPLRFSGSGSGTEFTLTISGVQSDDAATYYCQQGYSSSNVDNVFGGGTEVVVK
notes: V regions on human Ig constant parts; also called AB27_56
As for B4, in assay [1], the “IL-8, cross-linked” value was found to be 1.28 abs. corr and the “IL-8 [abs. corr.]” value amounted to 0.412 abs. corr. In assay [2], the “ELISA [abs. corr.]” value was 3.44 abs. corr. In assay [3], the “Cellular binding assay [RFU]” value turned out to be 275 RFU.

B5: P018.S.07.A.A05 (antibody, V domains shown)
VH: QEHLEESGGDLVKPGASLTLTCKASGFDLSINVMCWVRQAPGKGPEWIVCIDNGDGSTYYASWVNGRFTISKTSSTTVTLQMTSLTAADTATYFCARPGTFTYGGNTYPGSFVLWGPGTLVTVSS
VL: AFELTQTPSSVEAAVGGTVTINCQASQSISNALAWYQQKPGQPPKLLIYTASNLASGVPSRFKGSGSGTQFTLTISDLESADAATYYCQNYYVNIIGIGFGGGTEVVVK
notes: V regions on human Ig constant parts; also called AB27_114
Turning to B5, in assay [1], the “IL-8, cross-linked” value is 1.03 abs. corr and the “IL-8 [abs. corr.]” value was found to be 0.408 abs. corr. Further, the “ELISA [abs. corr.]” value in assay [2] was 3.44 abs. corr. For the same molecule, the “Cellular binding assay [RFU]” value in assay [3] worked out at 379 RFU.

B6: P018.S.03.A.G06 (antibody, V domains shown)
VH: QSLEESGGDLVKPGASLTLTCTASGFSFSRNNYMCWVRQAPGKGLESIACIHDGNSVGIYYTTWAKGRFTISKTSSTTVTLQMTSLTVADTATYFCARMSYTNDWDPIWGPGTLVTVSS
VL: DIVMTQTPASVEAAVGGTVTIDCQASENIYSLLAWYQQKPGQPPKVLISLASNLASGVPSRFKGSGSGTQFSLTISDLESADAATYYCQGYYYSSSTSYENAFGGGTEVVVS
notes: V regions on human Ig constant parts; also called AB27_59
Turning to B6, in assay [1], the “IL-8, cross-linked” value was 1.36 abs. corr and the “IL-8 [abs. corr.]” value was 0.56 abs. corr. Also, in assay [2], the “ELISA [abs. corr.]” value was found to be 3.4 abs. corr. In addition, the “Cellular binding assay [RFU]” value in assay [3] was determined as 302 RFU.

B7: P018.S.04.A.D02 (antibody, V domains shown)
VH: QSLEESGGRLVTPGTPLTLTCTASGFSLSTYAMGWVRQAPGEGLEWIGNINTDSGDTWYARWAKGRFTISTTSSTTVDLKITSPTIEDTATYFCARNPGDDVNLWGQGTLVTVSS
VL: AQVLTQTPSPVSAAVGDTVTINCQASQSVYNNNDLAWFQQKPGQPPKLLIYRTSILASGVPSRFKGSGSGTQFTLTISDLESDDAATYYCQGYYSGVIYVFGGGTEVVVK
notes: V regions on human Ig constant parts; also called AB27_71
For B7, in assay [1], the “IL-8, cross-linked” value came out at 1.35 abs. corr and the “IL-8 [abs. corr.]” value came to 0.294 abs. corr. Besides, in assay [2], the “ELISA [abs. corr.]” value came out at 3.42 abs. corr. The “Cellular binding assay [RFU]” value in assay [3] was 335 RFU.

B8: P018.S.10.A.G05 (antibody, V domains shown)
VH: QSVEESGGRLVTPGTPLTLTCTVSGFSLNNAHMCWVRQAPGKGLEWIGIIGASGSTYYASWAKGRFTISKTSTTVDLKMTSLTTEDTATYFCGRTDVGYTTANLWGQGTLVTVSS
VL: DVVMTQTPASVSAAVGGTVTIKCQASQTISSYLSWYQQKPGQPPKRLIYSASTLASGVSSRFKGSGSGTQFTLTISDLESADAATYYCQAYDTTSGTDLWAFGGGTEVVVK
notes: V regions on human Ig constant parts; also called AB27_183
In the case of B8, in assay [1], the “IL-8, cross-linked” value came out at 1.25 abs. corr and the “IL-8 [abs. corr.]” value stood at 0.137 abs. corr. In assay [2], the “ELISA [abs. corr.]” value was found to be 3.42 abs. corr. In addition, the “Cellular binding assay [RFU]” value in assay [3] was found to be 408 RFU.

B9: P018.S.03.A.A02 (antibody, V domains shown)
VH: QSVEESGGRLVTPGTPLTLTCTVSGFSLSSYDMTWVRQAPGEGLEWIGYINTDTTTYYASWAKGRFTISRTSTTVDLEITSPTTEDTATYFCARGNDPIYIDLWGQGTLVTVSS
VL: AAVLTQTPSPVSAAVGGTVSISCQSSKSVINNNWLGWYQQKPGQPPKLLISYASTLASGVPSRFSGSGSGTQFTLTISDVQSDDAATYYCAGAYSPDSENAFGGGTEVVLK
notes: V regions on human Ig constant parts; also called AB27_41
In the case of B9, in assay [1], the “IL-8, cross-linked” value turned out to be 2.2 abs. corr and the “IL-8 [abs. corr.]” value was found to be 0.651 abs. corr. Further, in assay [2], the “ELISA [abs. corr.]” value turned out to be 3.44 abs. corr. For the same molecule, in assay [3], the “Cellular binding assay [RFU]” value was 373 RFU.

B10: P018.S.07.A.B05 (antibody, V domains shown)
VH: QSLEESGGDLVKPGASLTLTCTASEFSFSNNYYICWVRQAPGKGLEWIACIYVHSGTTDYATWAKGRFTISRTSSTTVTLQMTSLTVADTATYFCARGRSGYYADAFDTWGPGTLVTVSS
VL: ALDMTQTPSPVSAAVGGTVTINCQASQSVYNNNNLAWYQQKPGQPPKLLIYLASNLASGVPSRFKGSGSGTQFTLTISEIQSDDAATYYCQGTDSSSGWEHAFGGGTEVVVK
notes: V regions on human Ig constant parts; also called AB27_117
B10: in assay [1], the “IL-8, cross-linked” value worked out at 1.41 abs. corr and the “IL-8 [abs. corr.]” value was 0.203 abs. corr. For the same molecule, the “ELISA [abs. corr.]” value in assay [2] is 3.42 abs. corr. In assay [3], the “Cellular binding assay [RFU]” value came out at 295 RFU.

B11: P018.S.03.A.B02 (antibody, V domains shown)
VH: QSLEESGGRLVTPGTPLTLTCTASGFSLSSYDMNWVRQAPGEGLEWIGTITTNSDTYYASWAKGRFTISKTSTTVDLKITSPTTEDTATYFCARGYTTFTLWGQGTLVTVSS
VL: DPVLTQTPSSASEPVGGTVTINCQASQNIYSNLAWYQQKPGQPPKLLIYGASTLESGVPSRFSGSGSGTQFTLTISDLESDDAATYYCQCTDYDSNYVVDFGGGTEVVVK
notes: V regions on human Ig constant parts; also called AB27_42
For the molecule B11, in assay [1], the “IL-8, cross-linked” value was 1.49 abs. corr and the “IL-8 [abs. corr.]” value came to 0.366 abs. corr. Besides, the “ELISA [abs. corr.]” value in assay [2] is 3.41 abs. corr. Further, the “Cellular binding assay [RFU]” value in assay [3] is 308 RFU.

B12: P018.S.09.A.C06 (antibody, V domains shown)
VH: QSVEESGGRLVTPGTPLTLTCTVSGFSLSTYAMGWVRQAPGKGLEWIGIIYTGGSTYYASWAEGRFTISKTSTTVDLKITSPTPEDTATYFCTRDLGATYDYFDLWGQGTLVTVSS
VL: AYDMTQTPASVEVAVGGTVTIKCQASQSISTALAWYQQKPGQRPKLLIYDTSDLASGVPSRFSGSGSGTEFTLTISGVESADAATYYCQQGYRHTNVDNPFGGGTGVVVK
notes: V regions on human Ig constant parts; also called AB27_149
Regarding B12, in assay [1], the “IL-8, cross-linked” value was 2.3 abs. corr and the “IL-8 [abs. corr.]” value came to 1.94 abs. corr. The “ELISA [abs. corr.]” value in assay [2] amounted to 3.45 abs. corr. Moreover, in assay [3], the “Cellular binding assay [RFU]” value was found to be 219 RFU.

B13: P018.S.01.A.E06 (antibody, V domains shown)
VH: QSLEESGGDLVKPGASLTLTCTASGIDFSSSYYMCWVRQAPGKGLEWIGCIATGGGNTYYATWAKGRFTFSETSSTTVTLQMTSLTVADTATYFCARTYPSMWYFNLWGPGTLVTVSS
VL: DVVMTQTPASVSEPVGGTVTIKCQASQSIGFNLAWYQQKPGQPPNLLIYGVSTLTSGVSSRFKGSGSGTQFTLTISDLESADAATYYCQSFYAGSSAFGGGTEVVVK
notes: V regions on human Ig constant parts; also called AB27_18
B13: in assay [1], the “IL-8, cross-linked” value worked out at 1.4 abs. corr and the “IL-8 [abs. corr.]” value was 0.448 abs. corr. Also, the “ELISA [abs. corr.]” value in assay [2] is 3.45 abs. corr. For the same molecule, the “Cellular binding assay [RFU]” value in assay [3] turned out to be 291 RFU.

B14: P018.S.02.A.G01 (antibody, V domains shown)
VH: QSLEESGGRLVTPGTPLTLTCTVSGIDLSSNAMNWVRQAPGKGLEWIGIIYTSGSTYYASWVKGRFTISRTSTTVDLEMTSLTTEDTATYFCARGVTIDWFDLWGQGTLVTVSS
VL: AAVLTQTPSSVSAAVGGTVTINCQSSPSVYSNYLSWFQQKPGQPPKLLIYGASTLTSGVPSRFKGSGSGTQFTLTINDVQSDDAATYWCLGGYGDINDTTFGGGTEVVVK
notes: V regions on human Ig constant parts; also called AB27_37
Take B14: in assay [1], the “IL-8, cross-linked” value worked out at 1.52 abs. corr and the “IL-8 [abs. corr.]” value is 0.127 abs. corr. Further, the “ELISA [abs. corr.]” value in assay [2] is 3.41 abs. corr. The “Cellular binding assay [RFU]” value in assay [3] was 332 RFU.
